Test results from the supplement of paper PMC9112550, “Optimization of the antimicrobial peptide Bac7 by deep mutational scanning” (BMC Biology, 2022).

The sequences below were run on Escherichia coli TOP10 (assay: shrunken log2 fold change of peptide-encoding DNA abundance (4.5 h post-induction vs induction); higher = less antimicrobial activity (less host growth inhibition)). Settings: time post-induction: 4.5 h; library: site-saturation at positions 5, 18, 19, 20.
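Also: peptides expressed intracellularly from a pBAD plasmid library in pooled LB shake-flask culture, induced with 0.3% L-arabinose, DNA abundance read by NGS, three biological replicates, DESeq2 with apeglm shrinkage.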

Q: How did the “shrunken log2 fold change” value turn out when RRIRMRPPRLPRPRPRPELGPRP was run?
A: 0.276

Q: With RRIRPRPPRLPRPRPRPTCWPRP as the sequence, how does the “shrunken log2 fold change” value read?
A: 0.349

Q: With RRIRCRPPRLPRPRPRPLCSPRP as the sequence, how does the “shrunken log2 fold change” value read?
A: -0.399

Q: RRIRVRPPRLPRPRPRPLLRPRP was tested. Which “shrunken log2 fold change” value did it give?
A: 0.0947

Q: Which “shrunken log2 fold change” value does the source give for RRIRDRPPRLPRPRPRPVTLPRP here?
A: -0.283

Q: RRIRVRPPRLPRPRPRPYIRPRP was tested. Which “shrunken log2 fold change” value did it give?
A: -0.434

Q: RRIRYRPPRLPRPRPRPKAMPRP was tested. Which “shrunken log2 fold change” value did it give?
A: -0.0317

Q: With RRIRVRPPRLPRPRPRPIRQPRP as the sequence, how does the “shrunken log2 fold change” value read?
A: -0.294

Q: For RRIRIRPPRLPRPRPRPTAIPRP, which “shrunken log2 fold change” value is on record?
A: -0.574

Q: With RRIRYRPPRLPRPRPRPYRKPRP as the sequence, how does the “shrunken log2 fold change” value read?
A: -0.178

Q: RRIRDRPPRLPRPRPRPYVDPRP was tested. Which “shrunken log2 fold change” value did it give?
A: -0.0902

Q: With RRIRVRPPRLPRPRPRPSLTPRP as the sequence, how does the “shrunken log2 fold change” value read?
A: -0.231

Q: RRIRSRPPRLPRPRPRPAWAPRP was tested. Which “shrunken log2 fold change” value did it give?
A: 0.333

Q: With RRIRLRPPRLPRPRPRPDAKPRP as the sequence, how does the “shrunken log2 fold change” value read?
A: 0.0577

Q: RRIRGRPPRLPRPRPRPDVPPRP was tested. Which “shrunken log2 fold change” value did it give?
A: 0.0136

Q: For RRIRFRPPRLPRPRPRPEHTPRP, which “shrunken log2 fold change” value is on record?
A: -0.213

Q: RRIRGRPPRLPRPRPRPIGIPRP was tested. Which “shrunken log2 fold change” value did it give?
A: -0.159

Q: With RRIRPRPPRLPRPRPRPVHDPRP as the sequence, how does the “shrunken log2 fold change” value read?
A: -0.115

Q: How did the “shrunken log2 fold change” value turn out when RRIRTRPPRLPRPRPRPNHRPRP was run?
A: -0.209

Q: How did the “shrunken log2 fold change” value turn out when RRIRLRPPRLPRPRPRPYADPRP was run?
A: -0.135

Q: How did the “shrunken log2 fold change” value turn out when RRIRSRPPRLPRPRPRPPIAPRP was run?
A: 2.36

Q: How did the “shrunken log2 fold change” value turn out when RRIRYRPPRLPRPRPRPFYNPRP was run?
A: -1.15

Q: RRIRKRPPRLPRPRPRPCTCPRP was tested. Which “shrunken log2 fold change” value did it give?
A: 0.00906

Q: For RRIRKRPPRLPRPRPRPESCPRP, which “shrunken log2 fold change” value is on record?
A: 0.183

Q: For RRIRWRPPRLPRPRPRPVCFPRP, which “shrunken log2 fold change” value is on record?
A: 0.376

Q: Which “shrunken log2 fold change” value does the source give for RRIRTRPPRLPRPRPRPGPPPRP here?
A: 0.404

Q: With RRIRQRPPRLPRPRPRPSEFPRP as the sequence, how does the “shrunken log2 fold change” value read?
A: -0.0736

Q: Which “shrunken log2 fold change” value does the source give for RRIRDRPPRLPRPRPRPQKNPRP here?
A: -0.431

Q: For RRIRVRPPRLPRPRPRPTRHPRP, which “shrunken log2 fold change” value is on record?
A: 0.156

Q: For RRIRARPPRLPRPRPRPFSRPRP, which “shrunken log2 fold change” value is on record?
A: -0.145

Q: RRIRARPPRLPRPRPRPKPNPRP was tested. Which “shrunken log2 fold change” value did it give?
A: 0.736

Q: RRIRSRPPRLPRPRPRPHAGPRP was tested. Which “shrunken log2 fold change” value did it give?
A: 0.428

Q: For RRIRPRPPRLPRPRPRPFMCPRP, which “shrunken log2 fold change” value is on record?
A: -0.164

Q: For RRIRCRPPRLPRPRPRPIDLPRP, which “shrunken log2 fold change” value is on record?
A: -0.271

Q: Which “shrunken log2 fold change” value does the source give for RRIRVRPPRLPRPRPRPAEDPRP here?
A: 0.0101

Q: RRIRRRPPRLPRPRPRPTNCPRP was tested. Which “shrunken log2 fold change” value did it give?
A: -0.197

Q: With RRIRYRPPRLPRPRPRPSTEPRP as the sequence, how does the “shrunken log2 fold change” value read?
A: -0.435

Q: For RRIRIRPPRLPRPRPRPSLKPRP, which “shrunken log2 fold change” value is on record?
A: -0.154

Q: Which “shrunken log2 fold change” value does the source give for RRIRCRPPRLPRPRPRPHWKPRP here?
A: -0.126

Q: With RRIRWRPPRLPRPRPRPYDNPRP as the sequence, how does the “shrunken log2 fold change” value read?
A: -0.263

Q: RRIRHRPPRLPRPRPRPGILPRP was tested. Which “shrunken log2 fold change” value did it give?
A: -0.111

Q: Which “shrunken log2 fold change” value does the source give for RRIRARPPRLPRPRPRPQMPPRP here?
A: 0.465

Q: With RRIRERPPRLPRPRPRPTEWPRP as the sequence, how does the “shrunken log2 fold change” value read?
A: -0.551

Q: With RRIRSRPPRLPRPRPRPRFMPRP as the sequence, how does the “shrunken log2 fold change” value read?
A: -0.211

Q: RRIRRRPPRLPRPRPRPRIIPRP was tested. Which “shrunken log2 fold change” value did it give?
A: 0.0728

Q: For RRIRLRPPRLPRPRPRPTMVPRP, which “shrunken log2 fold change” value is on record?
A: -0.0972

Q: For RRIRMRPPRLPRPRPRPTWGPRP, which “shrunken log2 fold change” value is on record?
A: 0.564

Q: RRIRDRPPRLPRPRPRPPEIPRP was tested. Which “shrunken log2 fold change” value did it give?
A: 0.487

Q: RRIRNRPPRLPRPRPRPAWDPRP was tested. Which “shrunken log2 fold change” value did it give?
A: 0.151

Q: With RRIRMRPPRLPRPRPRPIYRPRP as the sequence, how does the “shrunken log2 fold change” value read?
A: -0.0679

Q: Which “shrunken log2 fold change” value does the source give for RRIRFRPPRLPRPRPRPCNTPRP here?
A: -0.0482

Q: With RRIRVRPPRLPRPRPRPFLWPRP as the sequence, how does the “shrunken log2 fold change” value read?
A: -0.698

Q: RRIRVRPPRLPRPRPRPWLLPRP was tested. Which “shrunken log2 fold change” value did it give?
A: 0.208

Q: With RRIRVRPPRLPRPRPRPHTPPRP as the sequence, how does the “shrunken log2 fold change” value read?
A: -0.271

Q: Which “shrunken log2 fold change” value does the source give for RRIRGRPPRLPRPRPRPKITPRP here?
A: 0.413

Q: RRIRFRPPRLPRPRPRPRGQPRP was tested. Which “shrunken log2 fold change” value did it give?
A: 0.415

Q: Which “shrunken log2 fold change” value does the source give for RRIRFRPPRLPRPRPRPINHPRP here?
A: -0.511

Q: For RRIRIRPPRLPRPRPRPLMSPRP, which “shrunken log2 fold change” value is on record?
A: -0.372

Q: With RRIRPRPPRLPRPRPRPIEYPRP as the sequence, how does the “shrunken log2 fold change” value read?
A: 0.0392

Q: With RRIRARPPRLPRPRPRPDQAPRP as the sequence, how does the “shrunken log2 fold change” value read?
A: 0.026

Q: Which “shrunken log2 fold change” value does the source give for RRIRMRPPRLPRPRPRPGRCPRP here?
A: 1.02

Q: RRIRLRPPRLPRPRPRPIHGPRP was tested. Which “shrunken log2 fold change” value did it give?
A: -0.0797

Q: RRIRNRPPRLPRPRPRPHMCPRP was tested. Which “shrunken log2 fold change” value did it give?
A: -0.0575

Q: Which “shrunken log2 fold change” value does the source give for RRIRWRPPRLPRPRPRPHNEPRP here?
A: -0.476

Q: For RRIRARPPRLPRPRPRPVSRPRP, which “shrunken log2 fold change” value is on record?
A: 0.661

Q: For RRIRIRPPRLPRPRPRPNCTPRP, which “shrunken log2 fold change” value is on record?
A: -0.663

Q: RRIRARPPRLPRPRPRPTQCPRP was tested. Which “shrunken log2 fold change” value did it give?
A: 0.391

Q: RRIRSRPPRLPRPRPRPDPGPRP was tested. Which “shrunken log2 fold change” value did it give?
A: 0.246

Q: For RRIRGRPPRLPRPRPRPDLYPRP, which “shrunken log2 fold change” value is on record?
A: 0.574

Q: How did the “shrunken log2 fold change” value turn out when RRIRNRPPRLPRPRPRPFNYPRP was run?
A: -0.752

Q: With RRIRHRPPRLPRPRPRPTHLPRP as the sequence, how does the “shrunken log2 fold change” value read?
A: -0.102

Q: How did the “shrunken log2 fold change” value turn out when RRIRIRPPRLPRPRPRPANEPRP was run?
A: 0.158

Q: For RRIRSRPPRLPRPRPRPLMYPRP, which “shrunken log2 fold change” value is on record?
A: -0.197

Q: For RRIRMRPPRLPRPRPRPKRFPRP, which “shrunken log2 fold change” value is on record?
A: 0.483

Q: For RRIRVRPPRLPRPRPRPNVKPRP, which “shrunken log2 fold change” value is on record?
A: -0.159

Q: RRIRKRPPRLPRPRPRPRPGPRP was tested. Which “shrunken log2 fold change” value did it give?
A: 0.721

Q: RRIRARPPRLPRPRPRPLHGPRP was tested. Which “shrunken log2 fold change” value did it give?
A: 0.155

Q: Which “shrunken log2 fold change” value does the source give for RRIRKRPPRLPRPRPRPTGKPRP here?
A: 0.905

Q: With RRIRVRPPRLPRPRPRPVFRPRP as the sequence, how does the “shrunken log2 fold change” value read?
A: 0.189

Q: For RRIRFRPPRLPRPRPRPATVPRP, which “shrunken log2 fold change” value is on record?
A: 0.00554

Q: With RRIRNRPPRLPRPRPRPVQIPRP as the sequence, how does the “shrunken log2 fold change” value read?
A: 0.00489

Q: Which “shrunken log2 fold change” value does the source give for RRIRHRPPRLPRPRPRPCPEPRP here?
A: 0.037

Q: RRIRPRPPRLPRPRPRPSPRPRP was tested. Which “shrunken log2 fold change” value did it give?
A: 0.633

Q: How did the “shrunken log2 fold change” value turn out when RRIRTRPPRLPRPRPRPSAGPRP was run?
A: -0.0241

Q: How did the “shrunken log2 fold change” value turn out when RRIRRRPPRLPRPRPRPAEIPRP was run?
A: 1.1

Q: Which “shrunken log2 fold change” value does the source give for RRIRTRPPRLPRPRPRPTEAPRP here?
A: 0.0502

Q: RRIRPRPPRLPRPRPRPCYKPRP was tested. Which “shrunken log2 fold change” value did it give?
A: -1.32

Q: How did the “shrunken log2 fold change” value turn out when RRIRVRPPRLPRPRPRPDPDPRP was run?
A: -0.0209

Q: With RRIRCRPPRLPRPRPRPCWCPRP as the sequence, how does the “shrunken log2 fold change” value read?
A: -0.203

Q: How did the “shrunken log2 fold change” value turn out when RRIRNRPPRLPRPRPRPWGRPRP was run?
A: 0.0851

Q: How did the “shrunken log2 fold change” value turn out when RRIRSRPPRLPRPRPRPGDAPRP was run?
A: 0.298

Q: With RRIRVRPPRLPRPRPRPNFPPRP as the sequence, how does the “shrunken log2 fold change” value read?
A: 0.0508

Q: With RRIRCRPPRLPRPRPRPCIDPRP as the sequence, how does the “shrunken log2 fold change” value read?
A: -0.385

Q: With RRIRYRPPRLPRPRPRPNCRPRP as the sequence, how does the “shrunken log2 fold change” value read?
A: -0.134

Q: For RRIRARPPRLPRPRPRPDWQPRP, which “shrunken log2 fold change” value is on record?
A: 0.281

Q: With RRIRNRPPRLPRPRPRPPMMPRP as the sequence, how does the “shrunken log2 fold change” value read?
A: 0.0507

Q: With RRIRVRPPRLPRPRPRPPMHPRP as the sequence, how does the “shrunken log2 fold change” value read?
A: 0.245

Q: For RRIRMRPPRLPRPRPRPKKHPRP, which “shrunken log2 fold change” value is on record?
A: 0.405

Q: Which “shrunken log2 fold change” value does the source give for RRIRTRPPRLPRPRPRPIDIPRP here?
A: 0.0364

Q: Which “shrunken log2 fold change” value does the source give for RRIRTRPPRLPRPRPRPWWNPRP here?
A: -0.233

Q: RRIRYRPPRLPRPRPRPKKIPRP was tested. Which “shrunken log2 fold change” value did it give?
A: -0.483

Q: For RRIRCRPPRLPRPRPRPVKRPRP, which “shrunken log2 fold change” value is on record?
A: 0.0344

Q: Which “shrunken log2 fold change” value does the source give for RRIRNRPPRLPRPRPRPVYLPRP here?
A: -0.216

Q: For RRIRQRPPRLPRPRPRPHASPRP, which “shrunken log2 fold change” value is on record?
A: -0.00783

Q: With RRIRMRPPRLPRPRPRPEMHPRP as the sequence, how does the “shrunken log2 fold change” value read?
A: 0.346

Q: With RRIRMRPPRLPRPRPRPAWRPRP as the sequence, how does the “shrunken log2 fold change” value read?
A: 0.533

Q: For RRIRVRPPRLPRPRPRPSWVPRP, which “shrunken log2 fold change” value is on record?
A: -0.32

Q: With RRIRWRPPRLPRPRPRPVVWPRP as the sequence, how does the “shrunken log2 fold change” value read?
A: 0.626

Q: With RRIRARPPRLPRPRPRPVRNPRP as the sequence, how does the “shrunken log2 fold change” value read?
A: 0.142
